# Literature values as cited in patent US7449180B2, “Macroscopic scaffold containing amphiphilic peptides encapsulating cells” (priority 2001, dated 2008).
# Set-up: key: β denotes beta-sheet; α denote alpha-helix; r.c. denotes random coil
# Conditions: secondary structure of the peptide
row,Substance,Structure
1,n-(ADADADADARARARAR)-c [DAR32-IV],α/β
2,n-AEAEAEAEAKAK-c [EAK12],α/β
3,n-AEAEAEAEAKAKAKAK-c [EAK16-IV],β
4,n-AEAEAHAH-c [EAH8-II],r.c.
5,n-AEAEAHAHAEAEAHAH-c [EAH16-II],β
6,n-AEAEAKAK-c [EAK8-II],r.c.
7,n-AEAEAKAKAEAEAKAK-c [EAK16-II],β
8,n-AEAKAEAK-c [EAKA8-I],r.c.
9,n-AEAKAEAKAEAKAEAK-c [EAKA16-I],β
10,n-FEFEFKFKFEFEFKFK-c [EFK16-II],β
11,n-FEFKFEFK-c [EFK8-II],β
12,n-HEHEHKHK-c [EHK8-I],r.c.
13,n-HEHEHKHKHEHEHKHK-c [EHK16],r.c.
14,n-KADAKADA-c [KADA8-I],r.c.
15,n-KADAKADAKADAKADA-c [KADA16-I],β
16,n-KAKAKAKAEAEAEAEA-c [KAE16-IV],β
17,n-LELELKLK-c [ELK8-II],r.c.
18,n-LELELKLKLELELKLK-c [ELK16-II],β
19,n-RADARADA-c [RADA8-I],r.c.
20,n-RADARADARADARADA-c [RADA16-I],β
21,n-RADARGDARADARGDA-c [RGDA16-I],r.c.
22,n-RAEARAEA-c [RAEA8-I],r.c.
23,n-RAEARAEARAEARAEA-c [RAEA16-I],β
24,n-RARADADA-c [RAD8-II],r.c.
25,n-RARADADARARADADA-c [RAD16-II],β
26,n-RARARARADADADADA-c [RAD16-IV],β
27,n-RFRFRFRFRFRFRFRFRFRF-c [RF20*],β
28,n-VEVEVEVEVEVEVEVEVEVE-c [VE20*],β
